Measurements reported in US20040106198.

Key:
[1] = target: oxidized bovine insulin B chain, P01317
N-Suc-YVAD-pNA = target: T1, N-Suc-YVAD-pNA
T1 chain: YVAD

N-Suc-FVR-pNA = target: T2, N-Suc-FVR-pNA
T2 chain: FVR

N-Suc-GPK-pNA = target: T3, N-Suc-GPK-pNA
T3 chain: GPK

N-Suc-AAPF-pNA = target: T4, N-Suc-AAPF-pNA
T4 chain: AAPF

N-Suc-VGR-pNA = target: T5, N-Suc-VGR-pNA
T5 chain: VGR

N-Suc-GGF-pNA = target: T6, N-Suc-GGF-pNA
T6 chain: GGF

N-Suc-PFR-pNA = target: T7, N-Suc-PFR-pNA
T7 chain: PFR

[2] = target: human growth hormone, P01241
N-Suc-AAPA-pNA = target: T8, N-Suc-AAPA-pNA
T8 chain: AAPA

N-Suc-AAA-pNA = target: T9, N-Suc-AAA-pNA
T9 chain: AAA

N-Suc-AAVA-pNA = target: T10, N-Suc-AAVA-pNA
T10 chain: AAVA

N-Suc-AAPL-pNA = target: T11, N-Suc-AAPL-pNA
T11 chain: AAPL

N-Suc-AAPI-pNA = target: T12, N-Suc-AAPI-pNA
T12 chain: AAPI

N-Suc-AAV-pNA = target: T13, N-Suc-AAV-pNA
T13 chain: AAV

N-Suc-AAPV-pNA = target: T14, N-Suc-AAPV-pNA
T14 chain: AAPV

N-Suc-IEGR-pNA = target: T15, N-Suc-IEGR-pNA
T15 chain: IEGR

N-Suc-GGG-pNA = target: T16, N-Suc-GGG-pNA
T16 chain: GGG

N-Suc-AAPM-pNA = target: T17, N-Suc-AAPM-pNA
T17 chain: AAPM

N-Suc-AAPD-pNA = target: T18, N-Suc-AAPD-pNA
T18 chain: AAPD

N-Suc-GFG-pNA = target: T19, N-Suc-GFG-pNA
T19 chain: GFG

N-Suc-YLV-pNA = target: T20, N-Suc-YLV-pNA
T20 chain: YLV

N-Suc-GGL-pNA = target: T21, N-Suc-GGL-pNA
T21 chain: GGL

Chain of human growth hormone, P01241 (P01241 27-217): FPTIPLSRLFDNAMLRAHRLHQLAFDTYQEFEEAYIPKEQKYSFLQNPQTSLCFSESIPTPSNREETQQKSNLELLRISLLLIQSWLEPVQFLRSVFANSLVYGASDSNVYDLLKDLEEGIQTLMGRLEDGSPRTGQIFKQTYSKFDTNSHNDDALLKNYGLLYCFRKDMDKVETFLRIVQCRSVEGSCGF
Chain of oxidized bovine insulin B chain, P01317 (P01317 25-54): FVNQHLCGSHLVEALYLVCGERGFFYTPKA

B1: Nicotianalisin (Nicotiana benthamiana subtilisin-like serine protease) (protein)
chain: ANCITMYFLLLTILLLTLNPLTMAESETYIIHMDLSAMPKAFSSHQNWYLTTLASVSGSSSLGTESNRNSFSSSKLVYAYTNAIHGFSATLSPSELQVIKNSPGYLSSTKDMTVKIDTTHTSQFLGLNSDSGAWPKSDYGKDVIVGLVDTGIWPESKSYNDNGMTEVPSRWKGECESGTQFNSSLCNKKLIGARYFNKGLIANNPNITISMNSARDTDGHGTHTSSTAAGSHVESASYFGYARGSATGMAPKAHVAMYKALWEEGTMLSDILAAIDQAIEDGVDIISLSLGIDDLALYEDPVAIATFAAMEKDIFVSTSAGNEGPDDQALHNGTPWVLTVAAGTVDREFIGTLSLGNGVSVTGLSLYPGNSSSSESSIVFLKTCLEEKELEKNAHKFAVCYDTNGSVSDQLYNVKNTKVAGGIFITNYTDLEFYLQSEFPAVFLNFEDGDKVLEYIKNSHSPKARLEFQVTHLGAKPAPKVASYSSRGPSESCPFILKPDLMAPGALILASWPQKSPATQIRSGELFSNFNIISGTSMSCPHAAGVAALLKGAHPKWSPAAIRSAMMTTADTMDNMQMPIRDIGRNNNAASPLAMGAGRINPNKALDPGLIYDITSQDYINLLCALDFTSQQIKAITRSSAYSCSNSSLDLNYPSFIGYFNYNSSESDPKRIQEFQRTVTNVGEGMSVYTAKLTSMGDYKASVAPDKLVFKEKYEKQSYKLRIEGPLLVDIILFMVL
hydrolysis of oxidized insulin B chain, 2 to 16 hr at 37 C, MALDI-TOF of the cleavage products (FIG. 6) [1]: hydrolysis occurred after leucine, cysteine, proline, and lysine amino acid residues | Relative Activity (release of p-NA at 410 nm, 0.3 mM substrate) (% of the activity with N-Suc-AAPL-pNA) (N-Suc-YVAD-pNA): 70 | Relative Activity (release of p-NA at 410 nm, 0.3 mM substrate) (% of the activity with N-Suc-AAPL-pNA) (N-Suc-FVR-pNA): 1 | Relative Activity (release of p-NA at 410 nm, 0.3 mM substrate) (% of the activity with N-Suc-AAPL-pNA) (N-Suc-GPK-pNA): 2 | Relative Activity (release of p-NA at 410 nm, 0.3 mM substrate) (% of the activity with N-Suc-AAPL-pNA) (N-Suc-AAPF-pNA): 67 | Relative Activity (release of p-NA at 410 nm, 0.3 mM substrate) (% of the activity with N-Suc-AAPL-pNA) (N-Suc-VGR-pNA): 3 | Relative Activity (release of p-NA at 410 nm, 0.3 mM substrate) (% of the activity with N-Suc-AAPL-pNA) (N-Suc-GGF-pNA): 3 | Relative Activity (release of p-NA at 410 nm, 0.3 mM substrate) (% of the activity with N-Suc-AAPL-pNA) (N-Suc-PFR-pNA): 1 | in vitro cleavage of purified hGH at a 1:50 protease:substrate ratio, 10-30 min at 30 C, SDS-PAGE and Western blot (FIGS. 7 and 8) [2]: Two prominent immunoreactive degradation products were detected | Relative Activity (release of p-NA at 410 nm, 0.3 mM substrate) (% of the activity with N-Suc-AAPL-pNA) (N-Suc-AAPA-pNA): 24 | Relative Activity (release of p-NA at 410 nm, 0.3 mM substrate) (% of the activity with N-Suc-AAPL-pNA) (N-Suc-AAA-pNA): 2 | Relative Activity (release of p-NA at 410 nm, 0.3 mM substrate) (% of the activity with N-Suc-AAPL-pNA) (N-Suc-AAVA-pNA): 20 | Relative Activity (release of p-NA at 410 nm, 0.3 mM substrate) (% of the activity with N-Suc-AAPL-pNA) (N-Suc-AAPL-pNA): 100 | Relative Activity (release of p-NA at 410 nm, 0.3 mM substrate) (% of the activity with N-Suc-AAPL-pNA) (N-Suc-AAPI-pNA): 8 | Relative Activity (release of p-NA at 410 nm, 0.3 mM substrate) (% of the activity with N-Suc-AAPL-pNA) (N-Suc-AAV-pNA): 5 | Relative Activity (release of p-NA at 410 nm, 0.3 mM substrate) (% of the activity with N-Suc-AAPL-pNA) (N-Suc-AAPV-pNA): 8 | Relative Activity (release of p-NA at 410 nm, 0.3 mM substrate) (% of the activity with N-Suc-AAPL-pNA) (N-Suc-IEGR-pNA): 18 | Relative Activity (release of p-NA at 410 nm, 0.3 mM substrate) (% of the activity with N-Suc-AAPL-pNA) (N-Suc-GGG-pNA): 1 | Relative Activity (release of p-NA at 410 nm, 0.3 mM substrate) (% of the activity with N-Suc-AAPL-pNA) (N-Suc-AAPM-pNA): 100 | Relative Activity (release of p-NA at 410 nm, 0.3 mM substrate) (% of the activity with N-Suc-AAPL-pNA) (N-Suc-AAPD-pNA): 16 | Relative Activity (release of p-NA at 410 nm, 0.3 mM substrate) (% of the activity with N-Suc-AAPL-pNA) (N-Suc-GFG-pNA): 1 | Relative Activity (release of p-NA at 410 nm, 0.3 mM substrate) (% of the activity with N-Suc-AAPL-pNA) (N-Suc-YLV-pNA): 0 | Relative Activity (release of p-NA at 410 nm, 0.3 mM substrate) (% of the activity with N-Suc-AAPL-pNA) (N-Suc-GGL-pNA): 1
